Data reported in the RNAGym collection of RNA variant scans (doi:10.1093/molbev/msab373).

B1: Azoarcus group I ribozyme (parent)
chain: GUGCCUUGCGCCGGGAAACCACGCAAGGGAUGGUGUCAAAUUCGGCGAAACCUAAGCGCCCGCCCGGGCGUAUGGCAACGCCGAGCCAAGCUUCGGCGCCUGCGCCGAUGAAGGUGUAGAGACUAGACGGCACCCACCUAAGGCAAACGCUAUGGUGAAGGCAUAGUCCAGGGAGUGGCGAAAGUCACACAAACCGG

Variants of: B1
Assay: reverse-splicing fitness (ratio to wild type); higher = more active; in vitro selection; Mg2+ level not given
Summary of the method: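 An in vitro group I ribozyme library with randomized positions was T7-transcribed and gel-purified. In triplicate, 10 pmol RNA in EPPS pH 7.5 was reacted with 50 pmoles of a 30-nt RNA substrate for 1 h at 37 °C across several added MgCl2 levels (1–48 mM), then stopped with EDTA. Products were reverse transcribed from a substrate-complementary primer, PCR-amplified and sequenced (HiSeq 4000). Fitness is a variant's read proportion after selection over that before, normalised to wild type.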

Row | Variant | reverse-splicing fitness
1 | C82G A111U A120G A145G C150G | 0.00786
2 | C82G A111U A120G A145G C150A | 0.00899
3 | C82G A111U A120G A145G C150U | 0.0139
4 | C82G A111U A120G C150G C169G U176G | 0.00471
5 | C82G A111U A120G C150G C169G U176A | 0.0069
6 | C82G A111U A120G C150G C169G U176C | 0.00484
7 | C82G A111U A120G A145C C150U C169U U176G | 0.00513
8 | C82G A111U A120G A145C C150U C169U U176A | 0.019
9 | C82G A111U A120G A145C C150U C169U U176C | 0.013
10 | C82G A111U A120G C150A C169A U176C | 0.0211
11 | C82G A111U A120G C150A C169A U176A | 0.0207
12 | C82G A111U A120G C150A C169A U176G | 0.00601
13 | C82G A111U A120C C169U U176A | 0.0163
14 | C82G A111U A120C C169U U176G | 0.00561
15 | C82G A111U A120C C169U U176C | 0.0166
16 | C82G A111U A120C A145U U176A | 0.0204
17 | C82G A111U A120C A145U U176G | 0.00709
18 | C82G A111U A120C A145U U176C | 0.0279
19 | C82G A111U A120G A145G C150A C169A | 0.0109
20 | C82G A111U A120G A145G C150A C169U | 0.00945
21 | C82G A111U A120G A145G C150A C169G | 0.00903

Row | Variant | reverse-splicing fitness
22 | C82G A111U A120C A145U C150U C169U U176A | 0.0134
23 | C82G A111U A120C A145U C150U C169U U176G | 0.00575
24 | C82G A111U A120C A145U C150U C169U U176C | 0.0137
25 | C82G A111U A120G C150G | 0.00634
26 | C82G A111U A120G C150A | 0.00998
27 | C82G A111U A120G C150U | 0.0127
28 | C82G A111U A120C C150U U176A | 0.0133
29 | C82G A111U A120C C150U U176G | 0.00892
30 | C82G A111U A120C C150U U176C | 0.0248
31 | C82G A111U A120C C169U | 0.0134
32 | C82G A111U A120C C169A | 0.00833
33 | C82G A111U A120C C169G | 0.00915
34 | C82G A111U A120C A145U C169U | 0.0143
35 | C82G A111U A120C A145U C169G | 0.00981
36 | C82G A111U A120C A145U C169A | 0.00897
37 | C82G A111U A120G A145C C169A U176G | 0.00399
38 | C82G A111U A120G A145C C169A U176C | 0.00976
39 | C82G A111U A120G A145C C169A U176A | 0.0152
40 | C82G A111U A120G A145G C169U U176C | 0.0161
41 | C82G A111U A120G A145G C169U U176G | 0.00501
42 | C82G A111U A120G A145G C169U U176A | 0.0198

Row | Variant | reverse-splicing fitness
43 | C82G A111U A120G A145G C150G C169U U176C | 0.0128
44 | C82G A111U A120G A145G C150G C169U U176G | 0.00754
45 | C82G A111U A120G A145G C150G C169U U176A | 0.0116
46 | C82G A111U A120G A145U C150U C169U U176A | 0.0188
47 | C82G A111U A120G A145U C150U C169U U176C | 0.0167
48 | C82G A111U A120G A145U C150U C169U U176G | 0.00486
49 | C82G A111U A120G C150G C169A | 0.00883
50 | C82G A111U A120G C150G C169U | 0.00861
51 | C82G A111U A120G C150G C169G | 0.00797
52 | C82G A111U A120G C150U C169G | 0.0112
53 | C82G A111U A120G C150U C169U | 0.0101
54 | C82G A111U A120G C150U C169A | 0.0112
55 | C82G A111U A120G A145C C150G C169A | 0.00877
56 | C82G A111U A120G A145C C150G C169G | 0.00796
57 | C82G A111U A120G A145C C150G C169U | 0.0084
58 | C82G A111U A120G A145U C150G C169U U176C | 0.013
59 | C82G A111U A120G A145U C150G C169U U176G | 0.00505
60 | C82G A111U A120G A145U C150G C169U U176A | 0.0111
61 | C82G A111U A120C C150G U176G | 0.00396
62 | C82G A111U A120C C150G U176A | 0.00531
63 | C82G A111U A120C C150G U176C | 0.009

Row | Variant | reverse-splicing fitness
64 | C82G A111U A120G A145G C150G C169G U176C | 0.0116
65 | C82G A111U A120G A145G C150G C169G U176A | 0.0104
66 | C82G A111U A120G A145G C150G C169G U176G | 0.00621
67 | C82G A111U A120C C150A C169U U176C | 0.0159
68 | C82G A111U A120C C150A C169U U176G | 0.00816
69 | C82G A111U A120C C150A C169U U176A | 0.018
70 | C82G A111U A120G A145C C150U C169A U176A | 0.0138
71 | C82G A111U A120G A145C C150U C169A U176C | 0.0083
72 | C82G A111U A120G A145C C150U C169A U176G | 0.00544
73 | C82G A111U A120G A145C C150G C169G U176C | 0.00745
74 | C82G A111U A120G A145C C150G C169G U176A | 0.00853
75 | C82G A111U A120G A145C C150G C169G U176G | 0.00464
76 | C82G A111U A120C A145U C150U C169U | 0.0129
77 | C82G A111U A120C A145U C150U C169G | 0.00939
78 | C82G A111U A120C C150U | 0.0329
79 | C82G A111U A120C C150G | 0.00875
80 | C82G A111U A120C C150A | 0.0117
81 | C82G A111U A120G A145U C150G U176G | 0.0039
82 | C82G A111U A120G A145U C150G U176A | 0.00634
83 | C82G A111U A120G A145U C150G U176C | 0.0104
84 | C82G A111U A120G C150U U176G | 0.011
